How the values were obtained:
[1] = molecular target: FLAG-tagged WAVE2 stably expressed in A431 cells (UniProt Q9Y6W5); assay: co-IP
[2] = molecular target: Recombinant full-length WAVE2 tagged with GST at its COOH terminus (UniProt Q9Y6W5); assay: dual polarization interferometry
Recombinant full-length WAVE2 tagged with GST at its COOH terminus, sequence (Q9Y6W5 whole entry): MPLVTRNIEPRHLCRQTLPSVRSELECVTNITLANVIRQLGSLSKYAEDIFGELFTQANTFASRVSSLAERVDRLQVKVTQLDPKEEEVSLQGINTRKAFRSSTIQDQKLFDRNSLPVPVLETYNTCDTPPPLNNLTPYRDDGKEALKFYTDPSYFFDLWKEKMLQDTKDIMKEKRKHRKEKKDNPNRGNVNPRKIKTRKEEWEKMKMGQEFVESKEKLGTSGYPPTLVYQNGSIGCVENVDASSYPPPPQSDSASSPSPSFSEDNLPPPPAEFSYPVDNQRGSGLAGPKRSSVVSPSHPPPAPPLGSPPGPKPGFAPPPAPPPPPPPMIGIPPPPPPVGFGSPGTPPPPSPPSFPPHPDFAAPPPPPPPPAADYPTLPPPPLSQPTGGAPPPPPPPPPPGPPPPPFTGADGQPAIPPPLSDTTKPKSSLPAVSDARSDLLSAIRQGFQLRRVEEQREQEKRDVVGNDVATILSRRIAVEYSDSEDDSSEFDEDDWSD

FLAG-tagged WAVE2 stably expressed in A431 cells, sequence (Q9Y6W5 whole entry): as above

Substance | molar ratio of IRSp53 to WAVE2 in the purified complex [1] | Kd [2]
IRSp53, endogenous in A431 cells (from UniProt Q9UQB8 1-552) (natural protein) | 0.0005 | 
SH3 domain of IRSp53 (aa 363–521) (from UniProt Q9UQB8 363-521) (domain or fragment) |  | 5.7 µM

— paper PMC2063866
